The subject of this data set is OC[C@H](O)C(O)[C@@H](O)CO. As to the kind of experiment: purified protein, by the assay type. The note with it: other: with indicated substrate, 25° C., 50 mM Tris pH 8.0, saturated NAD+ (2 mM).

Experimental: Initial rates were determined using a Varian Cary 100 Bio UV-visible spectrophotometer (Varian) at 25° C. in 50 mM Tris (pH 8.0). […] The kinetic data were analyzed with a modified version of Cleland's program (Cleland, W. W. (1979) Statistical analysis of enzyme kinetic data, Methods Enzymol 63, 103-138.).
Kinetics. The data were used to calculate the kinetic constants for various substrates by fitting the Michaelis-Menten equation using Origin 5.0. […] The data represent averages of assays performed in duplicate or triplicate on two separate occasions.

The Km is the substrate concentration at which the rate is half of its maximum. A word on the kcat: it is the maximal rate divided by the concentration of active sites. A word on the kcat/Km: it is the turnover number divided by the Michaelis constant. Take N. crassa LAD (Neurospora crassa OR74A): the Km is 18 ± 2 mM, the kcat is 20.2 ± 0.5 s⁻¹ and the kcat/Km was 1120 M⁻¹ s⁻¹.

Values taken from patent US8114638B2, “Arabinitol dehydrogenase from Neurospora crassa” (The Board of Trustees of the University of Illinois, priority 2007, dated 2012).
